From US20260103488A1 (INTERK PEPTIDE THERAPEUTICS, published 2026)
Bridges are numbered along the chain shown (N, C = ends). Where no end group is shown, it is not given here. [ ]: non-standard residue; d: D form.

Target: Lck(h) (lymphocyte-specific protein tyrosine kinase) (human, UniProt P06239 1-509, limits assumed)
Test: cell-based or functional assay

Chain of Lck(h) (lymphocyte-specific protein tyrosine kinase) (P06239 whole entry): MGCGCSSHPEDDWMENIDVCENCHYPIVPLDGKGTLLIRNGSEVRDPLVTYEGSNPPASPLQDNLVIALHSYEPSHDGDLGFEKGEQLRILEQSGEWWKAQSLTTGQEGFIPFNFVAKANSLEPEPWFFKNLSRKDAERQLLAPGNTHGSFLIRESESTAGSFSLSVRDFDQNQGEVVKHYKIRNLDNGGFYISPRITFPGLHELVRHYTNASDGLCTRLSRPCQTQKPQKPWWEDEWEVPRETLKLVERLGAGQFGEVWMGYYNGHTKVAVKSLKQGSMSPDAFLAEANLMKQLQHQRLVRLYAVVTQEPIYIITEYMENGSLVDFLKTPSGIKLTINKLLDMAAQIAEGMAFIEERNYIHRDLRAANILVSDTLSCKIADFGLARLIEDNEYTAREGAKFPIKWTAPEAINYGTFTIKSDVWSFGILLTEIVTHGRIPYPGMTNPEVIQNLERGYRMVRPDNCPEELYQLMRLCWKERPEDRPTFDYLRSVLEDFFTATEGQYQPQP

Binder | Lck activity, percentage relative to control, in vitro kinase assay, peptide 1 µM | Lck activity relative to control (100%), in vitro kinase assay, peptide 1 µM
RSKAKNPLYKKKKKKKKK-NH2 [RSKAKNPLY-KKKKKKKKK (IK94K90)] | 49 % increase in Lck activity | 
RRRRRRRRRYLPNKAKSR-NH2 [RRRRRRRRR-YLPNKAKSR (IK9R94Y)] | 630 % increase in Lck activity | 
[dR][dR][dR][dR][dR][dR][dR][dR][dR][dR][dR][dR][dR][dR]-NH2 (N-terminus assumed; SMILES N=C(N)NCCC[C@@H](N)C(=O)N[C@H](CCCNC(=N)N)C(=O)N[C@H](CCCNC(=N)N)C(=O)N[C@H](CCCNC(=N)N)C(=O)N[C@H](CCCNC(=N)N)C(=O)N[C@H](CCCNC(=N)N)C(=O)N[C@H](CCCNC(=N)N)C(=O)N[C@H](CCCNC(=N)N)C(=O)N[C@H](CCCNC(=N)N)C(=O)N[C@H](CCCNC(=N)N)C(=O)N[C@H](CCCNC(=N)N)C(=O)N[C@H](CCCNC(=N)N)C(=O)N[C@H](CCCNC(=N)N)C(=O)N[C@H](CCCNC(=N)N)C(N)=O) [rrrrrrrrrrrrrr (IKD01400)] |  | 228 % Lck activity relative to control
[dR][dR][dR][dR][dR][dR][dR][dR]-NH2 (N-terminus assumed; SMILES N=C(N)NCCC[C@@H](N)C(=O)N[C@H](CCCNC(=N)N)C(=O)N[C@H](CCCNC(=N)N)C(=O)N[C@H](CCCNC(=N)N)C(=O)N[C@H](CCCNC(=N)N)C(=O)N[C@H](CCCNC(=N)N)C(=O)N[C@H](CCCNC(=N)N)C(=O)N[C@H](CCCNC(=N)N)C(N)=O) [rrrrrrrr (IKD00800)] |  | 80 % Lck activity relative to control
RSKAKNPLYRRRRRRRRR-NH2 [RSKAKNPLY-RRRRRRRRR-NH2 (IK14800)] | 496% | 
RSKAK-NH2 [RSKAK (IK5000)] | 5 % activation of Lck relative to control | 
[dR][dS][dK][dA][dK][dN][dP][dL][dY][dR][dR][dR][dR][dR][dR]-NH2 (N-terminus assumed; SMILES CC(C)C[C@@H](NC(=O)[C@H]1CCCN1C(=O)[C@@H](CC(N)=O)NC(=O)[C@@H](CCCCN)NC(=O)[C@@H](C)NC(=O)[C@@H](CCCCN)NC(=O)[C@@H](CO)NC(=O)[C@H](N)CCCNC(=N)N)C(=O)N[C@H](Cc1ccc(O)cc1)C(=O)N[C@H](CCCNC(=N)N)C(=O)N[C@H](CCCNC(=N)N)C(=O)N[C@H](CCCNC(=N)N)C(=O)N[C@H](CCCNC(=N)N)C(=O)N[C@H](CCCNC(=N)N)C(=O)N[C@H](CCCNC(=N)N)C(N)=O) [rskaknply-rrrrrr (ID94600)] | 60 % increase in Lck activity | 
KKKKKKKKKK-NH2 [KKKKKKKKKK (10Lys)] |  | 161 % increase in Lck activity
CRSKAKNPLYRRRRRRC (disulfide 1-17 (inferred); not fully specified; printed as C-RSKAKNPLY-RRRRRR-C (Cyclised)) [C-RSKAKNPLY-RRRRRR-C (Cyclised) (IK14500C)] | 221% | 
RRRRRRRRR-NH2 [RRRRRRRRR (IK00900)] | 325% | 
RSKAKNPLYRRRRRR-NH2 [RSKAKNPLY-RRRRRR (IK14500)] | 82% | 
RRRRRRRRRRRR-NH2 [RRRRRRRRRRRR (IK01200)] |  | 401 % Lck activity relative to control
RRRRRRRRRHHHHHHHHHH-NH2 [RRRRRRRRR-HHHHHHHHHH (IK00910)] |  | 348 % Lck activity relative to control
[dR][dR][dR][dR][dR][dR][dR][dR][dR][dY][dL][dP][dN][dK][dA][dK][dS][dR]-NH2 (N-terminus assumed; SMILES CC(C)C[C@@H](NC(=O)[C@@H](Cc1ccc(O)cc1)NC(=O)[C@@H](CCCNC(=N)N)NC(=O)[C@@H](CCCNC(=N)N)NC(=O)[C@@H](CCCNC(=N)N)NC(=O)[C@@H](CCCNC(=N)N)NC(=O)[C@@H](CCCNC(=N)N)NC(=O)[C@@H](CCCNC(=N)N)NC(=O)[C@@H](CCCNC(=N)N)NC(=O)[C@@H](CCCNC(=N)N)NC(=O)[C@H](N)CCCNC(=N)N)C(=O)N1CCC[C@@H]1C(=O)N[C@H](CC(N)=O)C(=O)N[C@H](CCCCN)C(=O)N[C@H](C)C(=O)N[C@H](CCCCN)C(=O)N[C@H](CO)C(=O)N[C@H](CCCNC(=N)N)C(N)=O) [rrrrrrrrr-ylpnkaksr (IKR81400)] | 616 % increase in Lck activity | 
HHHHHRSKAKNPLYRRRRRRRRR-NH2 [HHHHH-RSKAKNPLY-RRRRRRRRR (IK11480)] | 883 % increase in Lck activity | 
RSKAKRR-NH2 [RSKAK-RR (IK50200)] | 5 % activation of Lck relative to control | 
RSKAKNPLYRRRRRRRRRHHHHHHHHHH-NH2 [RSKAKNPLY-RRRRRRRRR-HHHHHHHHHH (IK14810)] | 899 % increase in Lck activity | 
RSKAKNPLYRHHHHHHHHHH-NH2 [RSKAKNPLY-RHHHHHHHHHH (IK14010)] | 30 % increase in Lck activity | 
RRRRRRRRRSKAKNPLYR-NH2 [RRRRRRRRR-SKAKNPLYR (IK9R94S)] | 542 % increase in Lck activity | 
RSKAKNPLYRRRRR-NH2 [RSKAKNPLY-RRRRR (IK14400)] | 85% | 
RSKAKRRRRRRRRR-NH2 [RSKAK-RRRRRRRRR (IK50900)] | 531 % increase in Lck activity | 
